In paper PMC8488679:

What was measured:
[1] = biological target: cytochrome c oxidase (COX), monomeric (bovine (endogenous in bovine heart mitochondria)) (UniProt P68530); experiment: complexome profiling
[2] = biological target: Apoptosis-inducing factor 1 (AIFM1) (bovine (endogenous in bovine heart mitochondria)); experiment: complexome profiling

UniProt P68530, sequence (P68530 whole entry, looked up): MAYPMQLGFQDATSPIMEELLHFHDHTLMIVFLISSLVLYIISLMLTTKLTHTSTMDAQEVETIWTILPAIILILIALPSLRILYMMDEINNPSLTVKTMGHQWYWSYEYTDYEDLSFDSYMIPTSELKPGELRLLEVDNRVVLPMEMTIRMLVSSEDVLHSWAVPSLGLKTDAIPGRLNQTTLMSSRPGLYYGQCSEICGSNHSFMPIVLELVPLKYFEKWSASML

percent of monomeric COX engaged in the complex [1]: 10%
stoichiometry N [2]: 2
Substance: Apoptosis-inducing factor 1 (AIFM1) (natural protein)
